These results are taken from patent US20200216522A1 (published 2020).

By Kd is commonly meant the concentration at which binding is half-saturated.

The assay has as its target full-length human Tau (Tau441; 2N4R), recombinant (UniProt P10636 1-758). As to the kind of experiment: SPR (Biacore); 25°C.

Chain of full-length human Tau (Tau441; 2N4R), recombinant (P10636 other isoform, or with tags, fused parts or gaps): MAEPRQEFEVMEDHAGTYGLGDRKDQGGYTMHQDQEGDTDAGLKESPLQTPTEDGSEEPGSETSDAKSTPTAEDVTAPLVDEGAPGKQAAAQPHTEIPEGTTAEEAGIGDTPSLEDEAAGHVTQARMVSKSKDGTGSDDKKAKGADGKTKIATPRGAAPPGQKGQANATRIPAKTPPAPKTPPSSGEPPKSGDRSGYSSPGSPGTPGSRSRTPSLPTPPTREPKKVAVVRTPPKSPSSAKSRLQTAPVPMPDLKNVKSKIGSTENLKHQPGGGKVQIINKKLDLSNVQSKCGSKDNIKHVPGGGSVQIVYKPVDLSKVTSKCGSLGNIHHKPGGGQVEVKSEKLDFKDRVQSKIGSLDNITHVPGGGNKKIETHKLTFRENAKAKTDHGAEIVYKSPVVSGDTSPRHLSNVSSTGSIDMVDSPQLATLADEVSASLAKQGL

B1: chimeric IgG clone 1A5 (antibody, V domains shown)
VH: EVQLQQSGAELVRPGASVKLSCTASGFNIKDSLIHWVKQRPEQGLEWIGWIDPEDGETKYAPKFQDKATKTADTSSNTAYLQLSSLTSEDTAIYYCASGEWDYWGQGTSVTVSS
VL: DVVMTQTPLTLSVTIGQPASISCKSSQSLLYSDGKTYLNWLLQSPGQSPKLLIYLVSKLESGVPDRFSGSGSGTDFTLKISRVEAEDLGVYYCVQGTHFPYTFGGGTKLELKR
For B1, the dissociation constant Kd amounted to 0.155 nM.

B2: chimeric IgG clone 1G7 (antibody, V domains shown)
VH: EVQLQQSGAEVVRPGASVKLSCTTSGFNIKDSLMHWLKQRPEQGLEWIGWIDPEDGETKYAPKFQDKATITADTSSNTAYLQLSSLTSGDTAIYYCARRDWEGPWGQGTLVTVSA
VL: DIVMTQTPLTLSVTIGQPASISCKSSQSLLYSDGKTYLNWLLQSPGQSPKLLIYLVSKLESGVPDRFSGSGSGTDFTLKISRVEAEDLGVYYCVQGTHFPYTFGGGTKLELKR
With B2, the Kd worked out at 0.0946 nM.
